In the supplement of paper PMC12783771 one finds sfGFP reporter fluorescence data, which are given here for 14 variants.

First the molecules themselves.
B1: library; a variant is named by its letters at X, in order (parent)
chain: MNIQIGELAKRTACPVVTIRFYEQEGLLPPPGRSRGNFRLYGEEHVERLQFIRHCRSLDMPLSDVRTLLSYRKRPDQDCGEVXMLLDEHIRQVESRIGALLELKHHLVELREACSGARPAQSCGILQXLSXCVCXTRGTTAHXSD

In data set [1] the parent is B1. Description: sfGFP reporter fluorescence (15 h) (µM FITC); higher = higher leak. To be noted: library round: Round 2; ligand: none. The essentials: (§1)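 PCR-made linear PbrR templates (Echo-normalized to 5 nM) were expressed in BL21 Star (DE3) extract (PANOx-SP) with pPbrR-sfGFP reporter plasmid and 30 μg/mL GamS. Reactions were 1 μL, Echo-assembled, with 1 µM lead chloride, 30 µM zinc acetate or no metal, incubated 15 hr at 30 °C. Endpoint sfGFP fluorescence (485/528 nm, Synergy Neo2) was converted to µM FITC via standard curves in 50 mM sodium borate pH 8.5. Up to three biological replicates.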

Variants of B1 are the subject of data set [2]. Description: sfGFP reporter fluorescence (15 h) (µM FITC); higher = stronger transcriptional activation. To be noted: library round: Round 2. In short, it runs like this:
as §1

± gives the standard deviation of the averaged measurements.

On to MNIQIGELAKRTACPVVTIRFYEQEGLLPPPGRSRGNFRLYGEEHVERLQFIRHCRSLDMPLSDVRTLLSYRKRPDQDCGEVTMLLDEHIRQVESRIGALLELKHHLVELREACSGARPAASCGILQGLSSCVCDTRGTTAHYSD [TGSDY Q121A], for which the sfGFP reporter fluorescence was found to be 0.0567 ± 0.0051 in data set [1], 0.0961 ± 0.0073 in data set [2] (ligand: 1 µM Pb) and 0.443 ± 0.056 in data set [2] (ligand: 30 µM Zn).
For MNIQIGELAKRTACPVVTIRFYEQEGLLPPPGRSRGNFRLYGEEHVERLQFIRHCRSLDMPLSDVRTLLSYRKRPDQDCGEVNMLLDEHIRQVESRIGALLELKHHLIELREACSGARPAQSCGILQGLSYCVCPTRGTTAHPSD [NGYPP V108I], in that order: 0.0743 ± 0.0068, 0.149 ± 0.033 and 1.1 ± 0.074.
The matching figures for MNIQIGELAKRTACPVVTIRFYEQEGLLPPPGRSRGNFRLYGEEHVERLQFIRHCRSLDMPLSDVRTLLSYRKRPDQDCGEVNMLLDEHIRQVESRIGALLELKHHLVELREACSGARPAQSCGILQGLSTCVCATRGTTAHTSD [NGTAT]: 0.0539 ± 0.0037, 0.0908 ± 0.0051 and 0.937 ± 0.052.
With MNIQIGELAKRTACPVVTIRFYEQEGLLPPPGRSRGNFRLYGEEHVERLQFIRHCRSLDMPLSDVRTLLSYRKRPDQDCGEVNMLLDEHIRQVEGRIGALLELKHHLVELREACSGARPAQSCGILQGLSYCVCATRGTTAHPSD [NGYAP S95G], the sfGFP reporter fluorescence in data set [1] came out at 0.0664 ± 0.003; in data set [2] (ligand: 1 µM Pb), 0.0795 ± 0.0044; in data set [2] (ligand: 30 µM Zn), 1.03 ± 0.072.
As to MNIQIGELAKRTACPVVTIRFYEQEGLLPPPGRSRGNFRLYGEEHVERLQFIRHCRSLDMPLSDVRTLLSYRKRPDQDCGEVNMLLDEHIRQVESRIGALLELKHHLVELREACGGARPAQSCGILQGLSTCPCDTRGTTAHPSD [NGTDP S115G V133P], the values for the sfGFP reporter fluorescence in data set [1], in data set [2] (ligand: 1 µM Pb) and in data set [2] (ligand: 30 µM Zn) were 0.0474 ± 0.0012, 0.0633 ± 0.00085 and 0.461 ± 0.052, respectively.
Turning to MNIQIGELAKRTACPVVTIRFYEQEGLLPPPGRSRGNFRLYGEEHVERLQFIRHCRSLDMPLSDVRTLLSYRKRPDQDCGEVTMLLDEHIRQVESRIGALLELKHHLVELREACSGARPAQSCGILQGLSSCVCPTRGTTAHPSD [TGSPP], the sfGFP reporter fluorescence in data set [1] was determined as 0.0436 ± 0.0022; in data set [2] (ligand: 1 µM Pb), 0.125 ± 0.0052; in data set [2] (ligand: 30 µM Zn) it was 0.305 ± 0.0072.
MNIQIGELAKRTACPVVTIRFYEQEGLLPPPGRSRGNFRLYGEEHVERLQFIRHCRSLDMPLSDVRTLLSYRKRPDQDCGEVNMLLDEHIRQVESRIGALLELKHHLVELREACSGARPAQSCGILQGLSSCVCPTRGTTAHASD [NGSPA]: the sfGFP reporter fluorescence in data set [1] is 0.0677 ± 0.013; in data set [2] (ligand: 1 µM Pb), 0.114 ± 0.019; in data set [2] (ligand: 30 µM Zn) it was 0.999 ± 0.13.
For the variant MNIQIGELAKRTACPVVTIRFYEQEGLLPPPGRSRGNFRLYGEEHVERLQFIRHCRSLDMPLSDVRTLLSYRKRPDQDCGEVNMLLDEHIRQVESRIGALLELKHHLVELREACSGARPAQSCGILQGLSSCVCPTRGTTAHLSD [NGSPL], the sfGFP reporter fluorescence in data set [1] worked out at 0.077 ± 0.0065; in data set [2] (ligand: 1 µM Pb) it was 0.141 ± 0.014; in data set [2] (ligand: 30 µM Zn), 1.2 ± 0.12.
Regarding MNIQIGELAKRTACPVVTIRFYEQEGLLPPPGRSRGNFRLYGEEHVERLQFIRHCRSLDMPLSDVRTLLSYRKRPDQDCGEVSMLLDEHIRQVESRIGALLELKHHLVELREACSGARPAQSCGILQGLSSCVCPTRGTTAHPSD [SGSPP], the figures for the sfGFP reporter fluorescence in data set [1], in data set [2] (ligand: 1 µM Pb) and in data set [2] (ligand: 30 µM Zn) were 0.0484 ± 0.0013, 0.123 ± 0.0072 and 0.394 ± 0.023, respectively.
In the case of MNIQIGELAKRTACPVVTIRFYEQEGLLPPPGRSRGNFRLYGEEHVERLQFIRHCRSLDMPLSDVRTLLSYRKRPDQDCGEVNMLLDEHIRQVESRIGALLELKHHLVELREACSGARPAQSCGILQHLSCCVCDTRGTTAHASD [NHCDA], the sfGFP reporter fluorescence in data set [1] is 0.0569 ± 0.0056; in data set [2] (ligand: 1 µM Pb) it was 0.0749 ± 0.0034; in data set [2] (ligand: 30 µM Zn), 0.446 ± 0.063.
For the variant MNIQIGELAKRTACPVVTIRFYEQEGLLPPPGRSRGNFRLYGEEHVERLQFIRHCRSLDMPLSDVRTLLSYRKRPDQDCGEVNMLLDEHIRQVESRIGALLELRHHLVELREACSGARPAQSCGILQGLSYCVCATRGTTAHPSD [NGYAP K104R], the results for the sfGFP reporter fluorescence in data set [1], in data set [2] (ligand: 1 µM Pb) and in data set [2] (ligand: 30 µM Zn) were 0.0664 ± 0.0054, 0.0679 ± 0.0057 and 0.698 ± 0.11, respectively.
As for MNIQIGELAKRTACPVVTIRFYEQEGLLPPPGRSRGNFRLYGEEHVERLQFIRHCRSLDMPLSDVRTLLSYRKRPDQDCGEVTMLLDEHIRQVESRIGALLELKHHLLELREACSGARPAQSCGILQGLSSCVCDTRGTTAHPSD [TGSDP V108L], the sfGFP reporter fluorescence amounted to 0.0452 ± 0.0017 in data set [1], 0.0823 ± 0.0056 in data set [2] (ligand: 1 µM Pb) and 0.229 ± 0.022 in data set [2] (ligand: 30 µM Zn).
For the variant MNIQIGELAKRTACPVVTIRFYEQEGLLPPPGRSRGNFRLYGEEHVERLQFIRHCRSLDMPLSDVRTLLSYRKRPDQDCGEVNMLLDEHIRQVESRIGALLELKHHLVELREACSGARPAQSCGIIQGLSSCVCRTRGTTAHPSD [NGSRP L126I], the sfGFP reporter fluorescence in data set [1] was 0.0416 ± 0.0022; in data set [2] (ligand: 1 µM Pb) it was 0.0457 ± 0.0021; in data set [2] (ligand: 30 µM Zn), 0.333 ± 0.0046.
The matching figures for MNIQIGELAKRTACPVVTIRFYEQEGLLPPPGRSRGNFRLYGEEHVERLQFIRHCRSLDMPLSDVRTLLSYRKRPDQDCGEVNMLLDEHIRQVESRIGALLELKHHLVELREACSGARPAQSCGILQGLSTCPCYTRGTTAHPSD [NGTYP V133P]: 0.0724 ± 0.0067, 0.148 ± 0.0095 and 0.951 ± 0.42.
